Key:
[1] = molecular target: T1, cystic fibrosis transmembrane conductance regulator (CFTR) inhibitory factor (Cif) (Pseudomonas aeruginosa, UniProt A0A0H2ZD27 25-319); experiment: sandwich ELISA, upper graph: Cif in serial dilution (about 0.05-100 ng/mL) captured on anti-Cif pAb 0.3 ug/well, VHH 50 ng/well, anti-HA mAb detection; the concentration is that of Cif; sheet labels the value IC50, text calls it EC50
T1 construct: also called CIF protein; Cif-protein
T1 sequence: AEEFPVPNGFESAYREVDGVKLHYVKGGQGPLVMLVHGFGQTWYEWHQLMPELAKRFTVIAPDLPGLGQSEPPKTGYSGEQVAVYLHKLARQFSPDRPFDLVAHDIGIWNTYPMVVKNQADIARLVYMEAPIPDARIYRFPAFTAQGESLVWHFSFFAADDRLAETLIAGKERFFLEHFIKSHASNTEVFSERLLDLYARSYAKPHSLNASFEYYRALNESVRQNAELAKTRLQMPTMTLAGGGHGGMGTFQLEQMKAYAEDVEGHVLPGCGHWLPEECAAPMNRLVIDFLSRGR
Protocol: (§1) 1). Immunoassay. A 96-well plate was coated with pAb at 3 μg/mL, 100 μL per well at RT for 1 h. The plate was blocked with 1% skimmed milk in PBST at RT for at least 2 h. Cif in PBS was loaded on the plate with increasing concentration and incubated for 1 h at RT. Following 5 times wash with PBST, VHH at 0.5 μg/mL in PBS, 100 μL per well (or 50 ng/well) was loaded. The plate was incubated for 1h at RT and then washed 5 times with wash buffer. Mouse anti-HA-HRP conjugate was added at 100 μl/well in a 1:3000 dilution as instructed by manufacturer. The plate was incubated for 1h at RT and washed 5 times. The plate was developed for 10 min with substrate solution added at 100 μl/well. The reaction was stopped by addition of 2M H₂SO₄ (50 μl/well) and absorbance was read at 450 nm. SigmaPlot 11.0 software was used for curve fitting and data analysis.
(§2) To evaluate produced recombinant antibodies, classical sandwich ELISA was performed using purified rabbit polyclonal anti-Cif antibodies as a capturing antibody (FIG. 3). […] Cif protein was loaded in a serial dilution range of 0.05-100 ng/mL and VHHs were added at 50 ng per well.

[2] = molecular target: T1, cystic fibrosis transmembrane …; experiment: sandwich ELISA, lower graph: Cif in serial dilution (about 0.05-100 ng/mL) captured on anti-Cif pAb 0.3 ug/well, VHH 50 ng/well, anti-HA mAb detection; the concentration is that of Cif; sheet labels the value IC50, text calls it EC50
Protocol: as §1, §2

Binder	EC50 [1]	EC50 [2]
VHH CLONE 108 (VHH, The entry includes the C-terminal 6xHis and HA tags) VHH: EVQLVESGGGLVQPGGSLRLSCEATGNFDDRGIGWFRQAPGKEREGIACITTRGRTHYAESVEGRFTISTDIANNAVYLQMNSLKPEDTAVYYCAKAIRLTTDRTQCVAFPGVSWGRGTQVTVSS	9.8 ng/mL	
VHH CLONE 116 (VHH, The entry includes the C-terminal 6xHis and HA tags) VHH: EVQLVESGGGLVQPGGSLRLSCTASGSILKIYTMDWYRQAPGKQRDLVATVSSRGDTDYTDSVKGRFTISRDDAKNTAYLQMSSLKPEDTAVYYCNFYIQSRTAPFNDYWGQGTQVTVSS		0.0312 µg/mL
VHH CLONE 213 (VHH, The entry includes the C-terminal 6xHis and HA tags) VHH: EVQLVESVGGLVQPGGSLRLSCVASGNIGDIYTMGWYRQAPGKQRELVATVGDGGLTNFVDSVKGRFTISRDKSKGTVSLEMNSLKPEDTAVYYCNADVRIGPTGLRVYWGQGTQVTVSS	11 ng/mL	
VHH CLONE 220 (VHH, The entry includes the C-terminal 6xHis and HA tags; also called nanobody 220) VHH: EVQLVESGGGLVQPGGSLRLSCVASGNIGNIYTMGWYRQAPGKQRELVAAVGAGELTNYVDSVKGRFTISRDKSKGTVSLEMNSLKPEDTAVYYCNADVSIGPTGLRVYWGQGTQVTVSS		0.0211 µg/mL
VHH CLONE 302 (VHH, The entry includes the C-terminal 6xHis and HA tags) VHH: QVKLQESGGGLVQPGGSLRLSCVASGNIGDIYTMGWYRQAPGKQRELVATVGDGGLTNFVDSVKGRFTISRDKSKGTVSLEMNSLKPEDTAVYYCNADVRIGPTGLRVYWGQGTQVTVSS		0.0172 µg/mL
VHH CLONE 103 (VHH, The entry includes the C-terminal 6xHis and HA tags) VHH: EVQLMESAGGLVRPGGSLRLSCVASGSIGDIYSMGWYRQAPGKQRELVATVGAGGLTDYGDSVLGRFTISRDKTKGTVSLEMNSLKPEDTAVYYCNADVSIGPTGLRVYWGQGTQVTVSS		0.0168 µg/mL
VHH CLONE 320 (VHH, The entry includes the C-terminal 6xHis and HA tags; also called nanobody 320) VHH: DVQLQASGGGLVQPGGSLRLSCATSTSVFSITTLGWYRQAPGKQRELVASMKRGGDTNYADSVKGRFTISRDNARNTVFLQMNNLTTEDTAVYYCNAAILAYTGAVTNYWGQGTQVTVSS	6.1 ng/mL	
VHH CLONE 205 (VHH, The entry includes the C-terminal 6xHis and HA tags) VHH: DVQLQASGGGLVQPGGSLRLSCAATGSTDRIAFMGWYRQAPGKLRELVAGITSDGRTNYADDVDVSGRFTISRDSAKNMVYLQMNSLKPEDTAVYYCNADITLAMGGLRVYWGQGTQVTVSS		0.0207 µg/mL

Reference: patent US20220169708A1 (University of California, published 2022)
